Experimental data taken from patent US20200010554A1 (TUSK THERAPEUTICS, published 2020).
Where a chain is given by its changes, count along the chain named. Values belong to the binder of their own block, whether it stands above or below them.

Key:
[1] = target: T1, recombinant human CD25 his tagged (human, UniProt P01589 22-213, limits assumed); test: biolayer interferometry, Octet Red 96: antibody on AHC biosensor, rhCD25 his tagged 50 nM to 0.54 nM, global 1:1 fit [F]
T1 construct: also called rhCD25 his tagged; rhCD25; not shown: his tag
T1 sequence: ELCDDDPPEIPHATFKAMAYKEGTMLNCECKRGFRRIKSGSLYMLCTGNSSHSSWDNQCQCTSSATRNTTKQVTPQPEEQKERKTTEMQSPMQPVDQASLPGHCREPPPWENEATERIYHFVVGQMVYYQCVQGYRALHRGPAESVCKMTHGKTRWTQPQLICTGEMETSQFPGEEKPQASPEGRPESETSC

[2] = target: T2, human CD25 expressed on cells (Karpas 299, SU-DHL-1, SR-786, in vitro differentiated Treg cells, PBMC) (human, UniProt P01589 22-272); test: flow cytometry on SR-786 cells, Geo Mean Intensity
T2 construct: also called CD25 expressing cells
T2 sequence: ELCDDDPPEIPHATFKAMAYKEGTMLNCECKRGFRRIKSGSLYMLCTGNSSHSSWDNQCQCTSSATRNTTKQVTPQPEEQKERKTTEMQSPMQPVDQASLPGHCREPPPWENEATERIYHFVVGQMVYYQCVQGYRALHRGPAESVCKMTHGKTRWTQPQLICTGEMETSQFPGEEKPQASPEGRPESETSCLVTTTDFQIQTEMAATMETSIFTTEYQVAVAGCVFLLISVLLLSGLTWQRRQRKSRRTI

[3] = target: T1, recombinant human CD25 his tagged; test: SPR, Biacore 2000: antibody captured on an anti-human antibody CM-5 chip, rhCD25 his tagged as analyte, 1:1 Langmuir fit
[4] = target: T2, human CD25 expressed on cells (Karpas …); test: flow cytometry on Karpas 299 cells, MFI AF647
[5] = target: T2, human CD25 expressed on cells (Karpas …); test: flow cytometry on SU-DHL-1 cells, Geo Mean Intensity
[6] = target: T1, recombinant human CD25 his tagged; test: SPR, Biacore 2000: antibody captured on an anti-human antibody CM-5 chip, rhCD25 his tagged as analyte, 1:1 Langmuir fit; remark: listed apart in the source
[7] = target: T2, human CD25 expressed on cells (Karpas …); test: flow cytometry on human in vitro differentiated Treg cells, MFI AF647
[8] = target: T2, human CD25 expressed on cells (Karpas …); test: flow cytometry on Karpas 299 cells, MFI AF647; remark: listed apart in the source
[9] = target: T2, human CD25 expressed on cells (Karpas …); test: flow cytometry titration on Karpas 299 cells, AF647 secondary antibody [Figure 68 continued]
[10] = target: T2, human CD25 expressed on cells (Karpas …); test: flow cytometry titration on Karpas 299 cells, AF647 secondary antibody
[11] = target: T2, human CD25 expressed on cells (Karpas …); test: flow cytometry titration on Karpas 299 cells, AF647 secondary antibody [Figure 68 continued]; remark: listed apart in the source
[12] = target: T2, human CD25 expressed on cells (Karpas …); test: flow cytometry titration on Karpas 299 cells, AF647 secondary antibody; remark: listed apart in the source
[13] = target: T2, human CD25 expressed on cells (Karpas …); test: flow cytometry titration on Karpas 299 cells, AF647 secondary antibody [Figure 68 continued]; remark: listed apart in the source
[14] = target: T2, human CD25 expressed on cells (Karpas …); test: as above; remark: listed apart in the source
[15] = target: T2, human CD25 expressed on cells (Karpas …); test: flow cytometry titration on Karpas 299 cells, AF647 secondary antibody; remark: listed apart in the source
[16] = target: T2, human CD25 expressed on cells (Karpas …); test: flow cytometry titration on Karpas 299 cells, AF647 secondary antibody [Figure 68 continued]; remark: listed apart in the source
[17] = target: T2, human CD25 expressed on cells (Karpas …); test: as above; remark: listed apart in the source
[18] = target: T2, human CD25 expressed on cells (Karpas …); test: flow cytometry titration on Karpas 299 cells, AF647 secondary antibody; remark: listed apart in the source
[19] = target: T2, human CD25 expressed on cells (Karpas …); test: as above; remark: listed apart in the source

- Kd [1]: 0.8 nM
B1: Antibody 5 (antibody, V domains shown)
VH: EVQLVESGGGLIQPGGSLRLSCAASGFTLDSYGVSWVRQAPGKGLEWVGVTSSGGSAYYADSVKGRFTISRDNSKNTLYLQMNSLRAEDTAVYYCARDRYVYTGGYLYHYGMDLWGQGTLVTVSS
VL: DIQMTQSPSSLSASVGDRVTITCRASQSISDYLAWYQQKPGKVPKLLIYAASTLPFGVPSRFSGSGSGTDFTLTISSLQPEDVATYYCQGTYDSSDWYWAFGGGTKVEI
notes: compared with a human IgG1 isotype control

- EC50 (read off the curve) [2]: ~0.9 mg/L
- Kd [3]: 6.7 nM
- EC50 (read off the curve) [4]: ~1 mg/L
- EC50 (read off the curve) [5]: ~0.8 mg/L
B2: chimeric 7G7B6 (antibody, V domains shown)
VH: EVQLVESGGDLVQPRGSLKLSCAASGFTFSSYGMSWVRQTPDKRLELVATINGYGDTTYYPDSVKGRFTISRDNAKNTLYLQMSSLKSEDTAMYFCARDRDYGNSYYYALDYWGQGTSVTVSS
VL: QIVLSQSPAILSASPGERVTMTCRASSSVSFMHWLQQKPGSSPKPWIYATSNLASGVSARFSGSGSGTSYSLTITRVEAEDAATYYCQQWSSNPPAFGGGTKLEIK
notes: also called 7G7B6 chimeric antibody; 7g7B6ch

- Kd [6]: 6.6 nM
B3: MA251ch (antibody, V domains shown)
VH: QVQLKESGPGLVAPSQSLSITCTVSGFSLTSYGIQWVRQPPGKGLEWLGVIWAGGSTNYNSALMSRLSISKDNSKSQVFLKMNSLQTDDTAMYYCARAYGYDGSWLAYWGQGTLVTVSS
VL: B2 VL with R18K, F31Y, L35Y, Y48F, S58P, T75N, A83D, A96T

- EC50 (read off the curve) [7]: ~1 mg/L
B4: 7G7B6, mouse IgG2a anti-human CD25 antibody (antibody, V domains shown)
VH: B2 VH
VL: B2 VL
notes: also called 7G76B; mouse anti-human CD25 clone 7G7B6

- EC50 (read off the curve) [8]: ~0.1 mg/L
B5: MA251, mouse anti-human CD25 antibody (antibody, V domains shown)
VH: B3 VH
VL: B2 VL with R18K, F31Y, L35Y, Y48F, S58P, T75N, A83D, A96T
notes: Mouse isotype (compared with a mouse IgG1 isotype control)

- EC50 (read off the curve) [9]: ~0.3 mg/L
B6: Antibody 18 (antibody, V domains shown)
VH: QVQLVESGGGVVQPGGSLRLSCAVSGFSLTSYGIQWVRQAPGKGLEWVSVIWAGGSTNYNSALMSRFTISKDNSKSTLYLQMNSLRAEDTAVYYCARAYGYDGSWLAYWGQGTLVTVSS
VL: EIVLTQSPATLSLSPGERATLSCRASSSVSYMHWYQQKPGQAPRPLIFATSNLASGIPARFSGSGSGTDFTLTISSLEPEDFAVYYCQQWSSNPPTFGGGTKLEIK
notes: also called Ab18

- binding result [10]: binds
B7: Antibody 6 (antibody, V domains shown)
VH: EVQLLESGGGLVQPGGSLRLSCAASGFTFSSYGMSWVRQAPGKGLELVSTINGYGDTTYYPDSVKGRFTISRDNSKNTLYLQMNSLRAEDTAVYYCARDRDYGNSYYYALDYWGQGTLVTVSS
VL: B6 VL with A9G, Y31F, Y35L, F48Y, A59D, F70Y, S76R, T96A, G99Q
notes: as for B1

- EC50 (read off the curve) [11]: ~0.3 mg/L
B8: Antibody 19 (antibody, V domains shown)
VH: B6 VH
VL: B6 VL with E1Q, F70Y
notes: also called Ab19; Antibodyl9

- EC50 (read off the curve) [12]: ~0.3 mg/L
B9: Antibody 12 (antibody, V domains shown)
VH: QVQLQESGPGLVKPSETLSLTCTVSGFSLTSYGIQWIRQPPGKGLEWIGVIWAGGSTNYNSALMSRVTISKDNSKNQFSLKLSSVTAADTAVYYCARAYGYDGSWLAYWGQGTLVTVSS
VL: DIQMTQSPSSLSASVGDRVTITCRASSSVSYMHWYQQKPGKAPKPLIFATSNLASGVPSRFSGSGSGTDYTLTISSLQPEDFATYYCQQWSSNPPTFGGGTKLEIK
notes: also called Ab12

- EC50 (read off the curve) [13]: ~0.2 mg/L
B10: Antibody 20 (antibody, V domains shown)
VH: B6 VH
VL: B9 VL
notes: also called Ab20

- EC50 (read off the curve) [14]: ~0.2 mg/L
B11: Antibody 17 (antibody, V domains shown)
VH: B9 VH with I37V, N76S
VL: B9 VL with D1Q, M4L, A42S
notes: also called Ab17

- EC50 (read off the curve) [15]: ~0.2 mg/L
B12: Antibody 13 (antibody, V domains shown)
VH: B9 VH
VL: B9 VL with D1Q, M4L, A42S
notes: also called Ab13

- EC50 (read off the curve) [16]: ~0.2 mg/L
B13: Antibody 16 (antibody, V domains shown)
VH: B9 VH with I37V, N76S
VL: B9 VL
notes: also called Ab16

- EC50 (read off the curve) [17]: ~0.2 mg/L
B14: Antibody 21 (antibody, V domains shown)
VH: B6 VH
VL: B9 VL with D1Q, M4L, A42S
notes: also called Ab21

- EC50 (read off the curve) [18]: ~0.3 mg/L
B15: Antibody 15 (antibody, V domains shown)
VH: B9 VH with I37V, N76S
VL: B6 VL with E1Q, F70Y
notes: also called Ab15

- EC50 (read off the curve) [19]: ~0.3 mg/L
B16: Antibody 14 (antibody, V domains shown)
VH: B9 VH with I37V, N76S
VL: B6 VL
notes: also called AB14
